From paper doi:10.1101/2025.06.20.660723 come the findings set out here.

The target of this experiment is Lhcb2 of Posidonia oceanica, threonine-phosphorylated (Posidonia oceanica (endogenous in leaves)).

For the substance “Lhcb1 of Posidonia oceanica (natural protein)”, the stoichiometry N (Lhcb1 per Lhcb2) turned out to be 2.
